B1: Mitochondrial antiviral-signaling protein (Homo sapiens), Q7Z434 (parent)
chain: MPFAEDKTYKYICRNFSNFCNVDVVEILPYLPCLTARDQDRLRATCTLSGNRDTLWHLFNTLQRRPGWVEYFIAALRGCELVDLADEVASVYQSYQPRTSDRPPDPLEPPSLPAERPGPPTPAAAHSIPYNSCREKEPSYPMPVQETQAPESPGENSEQALQTLSPRAIPRNPDGGPLESSSDLAALSPLTSSGHQEQDTELGSTHTAGATSSLTPSRGPVSPSVSFQPLARSTPRASRLPGPTGSVVSTGTSFSSSSPGLASAGAAEGKQGAESDQAEPIICSSGAEAPANSLPSKVPTTLMPVNTVALKVPANPASVSTVPSKLPTSSKPPGAVPSNALTNPAPSKLPINSTRAGMVPSKVPTSMVLTKVSASTVPTDGSSRNEETPAAPTPAGATGGSSAWLDSSSENRGLGSELSKPGVLASQVDSPFSGCFEDLAISASTSLGMGPCHGPEENEYKSEGTFGIHVAENPSIQLLEGNPGPPADPDGGPRPQADRKFQEREVPCHRPSPGALWLQVAVTGVLVVTLLVVLYRRRLH
partner: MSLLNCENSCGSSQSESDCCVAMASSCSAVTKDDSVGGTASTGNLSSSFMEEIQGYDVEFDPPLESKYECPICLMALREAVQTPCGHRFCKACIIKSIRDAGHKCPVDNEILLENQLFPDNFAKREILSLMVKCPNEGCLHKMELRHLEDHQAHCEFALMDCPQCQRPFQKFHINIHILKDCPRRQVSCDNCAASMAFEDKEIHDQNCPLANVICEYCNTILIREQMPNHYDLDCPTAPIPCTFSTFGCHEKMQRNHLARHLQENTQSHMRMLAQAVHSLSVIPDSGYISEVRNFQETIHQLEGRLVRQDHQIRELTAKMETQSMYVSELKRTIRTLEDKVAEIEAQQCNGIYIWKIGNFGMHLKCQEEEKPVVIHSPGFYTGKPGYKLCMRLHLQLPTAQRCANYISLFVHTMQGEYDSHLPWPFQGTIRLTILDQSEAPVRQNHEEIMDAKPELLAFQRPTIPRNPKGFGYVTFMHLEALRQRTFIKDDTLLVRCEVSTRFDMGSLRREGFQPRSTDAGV

Variants of: B1
Conditions: with traf6_human TRAF6, Q9Y4K3
With P455D the “effect of a mutation on the interaction” value was “disrupting interaction strength”. In the case of E457A, the “effect of a mutation on the interaction” value is reported as “disrupting interaction strength”. With Y460A the “effect of a mutation on the interaction” value was “disrupting interaction strength”. In the case of Y460E, the “effect of a mutation on the interaction” value is reported as “decreasing interaction strength”.
